According to doi:10.1101/2020.05.06.080465:

Biological target: 19S proteasomal subunit (human (endogenous in HeLa))
Assay: SEC

- percent of the ADRM1 signal associated with 19S: 15%
Substance: ubiquitin receptor ADRM1 (from UniProt Q16186 1-407) (natural protein)
